Key:
Assay in all cases: Kd (EC50 corrected by depletion factor)
XAB2 = target: T1, XAB2 (UniProt Q9HCS7)
T1 sequence: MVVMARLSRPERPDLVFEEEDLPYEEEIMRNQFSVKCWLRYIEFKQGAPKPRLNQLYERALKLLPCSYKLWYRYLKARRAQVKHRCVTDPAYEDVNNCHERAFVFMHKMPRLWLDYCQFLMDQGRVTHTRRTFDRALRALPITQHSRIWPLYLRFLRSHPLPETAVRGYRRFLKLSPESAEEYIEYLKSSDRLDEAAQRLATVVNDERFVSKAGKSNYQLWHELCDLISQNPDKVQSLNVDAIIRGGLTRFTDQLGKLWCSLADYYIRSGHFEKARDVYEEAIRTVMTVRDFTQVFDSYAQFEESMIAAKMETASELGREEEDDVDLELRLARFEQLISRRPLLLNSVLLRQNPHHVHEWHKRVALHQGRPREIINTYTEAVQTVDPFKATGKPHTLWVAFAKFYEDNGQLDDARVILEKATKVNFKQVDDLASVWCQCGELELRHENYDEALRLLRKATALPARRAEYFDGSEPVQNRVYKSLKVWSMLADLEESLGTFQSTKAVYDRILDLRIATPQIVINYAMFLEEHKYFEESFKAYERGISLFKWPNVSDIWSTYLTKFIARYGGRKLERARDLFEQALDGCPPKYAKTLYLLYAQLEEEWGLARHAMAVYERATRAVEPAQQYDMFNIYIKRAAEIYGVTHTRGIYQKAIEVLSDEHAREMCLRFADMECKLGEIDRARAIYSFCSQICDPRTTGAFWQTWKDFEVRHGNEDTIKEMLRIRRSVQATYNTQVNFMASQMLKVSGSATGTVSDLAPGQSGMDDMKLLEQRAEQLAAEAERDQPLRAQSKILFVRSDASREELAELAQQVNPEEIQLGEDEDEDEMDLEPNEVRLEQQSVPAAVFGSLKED
How it was run: (§1)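 Kd was calculated as EC50, taken from a four-parameter log-logistic fit, multiplied by a protein-dependent depletion factor. The assay used HEK293-FT lysate (2.5 mg protein/well) pre-incubated for 1 h at 4°C with free RNA oligos (0 nM to 30 μM), then incubated for 30 min at 4°C with the matching oligos bound through a 5′-amino-C6 linker to NHS-Sepharose beads. Bound proteins were measured by label-free LC-MS/MS and normalised to the control.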

AQR = target: T2, AQR (UniProt O60306)
T2 sequence: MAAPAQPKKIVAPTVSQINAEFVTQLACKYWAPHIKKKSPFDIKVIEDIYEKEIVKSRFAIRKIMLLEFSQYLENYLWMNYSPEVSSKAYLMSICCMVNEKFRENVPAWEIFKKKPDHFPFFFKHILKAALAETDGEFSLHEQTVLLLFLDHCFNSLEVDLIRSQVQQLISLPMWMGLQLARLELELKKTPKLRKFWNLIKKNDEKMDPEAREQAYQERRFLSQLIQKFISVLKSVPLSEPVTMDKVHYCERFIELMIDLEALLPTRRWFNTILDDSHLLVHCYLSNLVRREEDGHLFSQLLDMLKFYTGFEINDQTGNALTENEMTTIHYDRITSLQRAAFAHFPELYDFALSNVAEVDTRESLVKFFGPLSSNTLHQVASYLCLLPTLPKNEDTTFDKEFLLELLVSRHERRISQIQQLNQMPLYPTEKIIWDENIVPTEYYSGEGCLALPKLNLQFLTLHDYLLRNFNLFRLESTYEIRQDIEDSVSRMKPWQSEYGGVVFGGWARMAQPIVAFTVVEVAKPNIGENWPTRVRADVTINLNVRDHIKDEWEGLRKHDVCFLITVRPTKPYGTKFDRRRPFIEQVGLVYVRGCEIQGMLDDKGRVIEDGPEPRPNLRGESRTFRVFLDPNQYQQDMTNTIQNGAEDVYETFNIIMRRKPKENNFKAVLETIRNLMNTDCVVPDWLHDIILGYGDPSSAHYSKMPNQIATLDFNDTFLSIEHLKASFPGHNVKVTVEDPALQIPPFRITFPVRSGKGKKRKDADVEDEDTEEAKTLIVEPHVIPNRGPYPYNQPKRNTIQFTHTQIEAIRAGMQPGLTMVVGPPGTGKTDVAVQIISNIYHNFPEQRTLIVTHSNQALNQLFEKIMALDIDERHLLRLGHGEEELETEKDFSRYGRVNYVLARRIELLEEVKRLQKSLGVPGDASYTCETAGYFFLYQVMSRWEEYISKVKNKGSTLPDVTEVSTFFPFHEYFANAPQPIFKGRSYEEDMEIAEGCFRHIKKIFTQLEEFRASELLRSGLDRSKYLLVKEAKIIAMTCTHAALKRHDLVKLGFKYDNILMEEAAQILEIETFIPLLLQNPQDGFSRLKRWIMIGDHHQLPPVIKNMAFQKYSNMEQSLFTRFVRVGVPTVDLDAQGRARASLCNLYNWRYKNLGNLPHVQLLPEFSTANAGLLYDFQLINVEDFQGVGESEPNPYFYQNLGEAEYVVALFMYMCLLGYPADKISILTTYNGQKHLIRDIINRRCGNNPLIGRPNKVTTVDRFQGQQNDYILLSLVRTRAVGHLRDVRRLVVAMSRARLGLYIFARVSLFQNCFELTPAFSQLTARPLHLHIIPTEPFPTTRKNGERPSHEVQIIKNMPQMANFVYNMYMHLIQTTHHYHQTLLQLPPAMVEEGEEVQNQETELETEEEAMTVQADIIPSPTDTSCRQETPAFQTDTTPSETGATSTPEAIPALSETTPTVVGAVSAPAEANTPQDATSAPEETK
How it was run: as §1

RBM7 = target: T3, RBM7 (UniProt Q9Y580)
T3 sequence: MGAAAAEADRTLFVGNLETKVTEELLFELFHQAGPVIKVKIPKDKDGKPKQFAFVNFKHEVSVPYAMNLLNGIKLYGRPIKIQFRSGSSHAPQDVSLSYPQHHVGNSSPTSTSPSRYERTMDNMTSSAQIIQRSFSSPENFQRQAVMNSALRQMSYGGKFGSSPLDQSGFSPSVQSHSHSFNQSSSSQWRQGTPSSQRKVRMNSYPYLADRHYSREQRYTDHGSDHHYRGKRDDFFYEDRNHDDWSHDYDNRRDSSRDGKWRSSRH
How it was run: as §1

NCL = NCL (UniProt P19338)
Chain of NCL (P19338 whole entry): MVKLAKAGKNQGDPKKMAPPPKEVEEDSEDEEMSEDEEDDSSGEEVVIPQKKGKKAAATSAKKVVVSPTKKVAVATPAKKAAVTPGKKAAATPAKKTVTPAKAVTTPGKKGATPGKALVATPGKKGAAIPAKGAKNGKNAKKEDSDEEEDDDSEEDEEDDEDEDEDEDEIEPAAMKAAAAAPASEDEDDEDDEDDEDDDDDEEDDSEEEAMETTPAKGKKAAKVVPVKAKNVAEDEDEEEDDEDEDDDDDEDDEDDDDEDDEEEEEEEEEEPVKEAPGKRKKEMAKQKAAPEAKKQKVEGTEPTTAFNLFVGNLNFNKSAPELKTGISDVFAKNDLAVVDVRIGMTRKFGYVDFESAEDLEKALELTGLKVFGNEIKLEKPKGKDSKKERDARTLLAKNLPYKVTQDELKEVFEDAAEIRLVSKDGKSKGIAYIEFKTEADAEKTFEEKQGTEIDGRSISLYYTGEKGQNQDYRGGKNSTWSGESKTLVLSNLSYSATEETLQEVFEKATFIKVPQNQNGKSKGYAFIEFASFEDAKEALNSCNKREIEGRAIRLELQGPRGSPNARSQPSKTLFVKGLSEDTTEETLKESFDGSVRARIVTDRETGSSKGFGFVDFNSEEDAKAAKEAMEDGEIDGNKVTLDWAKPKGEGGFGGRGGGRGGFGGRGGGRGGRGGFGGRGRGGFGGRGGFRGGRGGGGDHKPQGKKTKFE
How it was run: as §1

Row | Sequence | Kd (XAB2) | Kd (AQR) | Kd (RBM7) | Kd (NCL)
1 | AAUAAA | 322 nM | 213 nM | 156 nM | 
2 | CUGUCCU |  |  |  | 86.8 nM
3 | UAUUUAU | 286 nM | 320 nM | 81.2 nM | 1770 nM

— the supplement of paper PMC6379048
